Experimental data taken from PMC5358875 (Journal of the American Chemical Society, 2017).
Each block holds one molecule with its values, some of them ahead of it. Bridge positions count the residues as written; N and C are the ends. Square brackets hold non-standard residues; d marks the D form. Ends that are not written are not given here. * marks the point of attachment. 5‑TAMRA = CN(C)c1ccc2c(-c3ccc(C(=O)*)cc3C(=O)[O-])c3ccc(N(C)C)cc3[o+]c2c1; n3 = azido unnatural amino acid, 3 CH2 in side chain; Orn(N3) = [N-]=[N+]=NCCC[C@H](N)C(=O)O; Dap(N3) = [N-]=[N+]=NC[C@H](N)C(=O)O; Aha = [N-]=[N+]=NCC[C@H](N)C(=O)O; m3N = not defined here; m3c = not defined here; m3 = not defined here; m4 = not defined here; m5 = not defined here; Ahx = NCCCCCC(=O)O

What was measured:
TNKS2 ARC4 = biological target: T1, TNKS2 ARC4 (Homo sapiens, UniProt Q9H2K2); test: Direct fluorescence polarization, TNKS2 ARC4; format: binding; settings: TAMRA-labeled peptides, n.d. = not detectable; for Kd: read-out: Kd TNKS2 ARC4 (Direct FP)
T1 construct: GST (cleaved yes); made in house; host or cells: E. coli C41(DE3)
T1 sequence (Q9H2K2 488-649): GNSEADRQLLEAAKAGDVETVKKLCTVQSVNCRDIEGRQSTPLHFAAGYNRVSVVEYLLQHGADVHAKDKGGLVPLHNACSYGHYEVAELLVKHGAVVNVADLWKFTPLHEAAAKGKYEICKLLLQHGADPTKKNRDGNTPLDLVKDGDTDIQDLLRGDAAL
Description: Fluorescence polarization (FP) assays were performed in 96-well half area black microplates (Corning) on a CLARIOstar microplate reader (BMG labtech) using excitation filter 540–20 nm, dichroic mirror LP 566 nm, and emission filter 590–20 nm. All peptides were dissolved in water as stock solutions. For direct FP assays, the stock concentrations of the TAMRA-labeled peptides were determined based on the 5-TAMRA absorbance at 556 nm (extinction coefficient ε = 89,000 M^–1 cm^–1) measured on a NanoDrop 2000 (Thermo Scientific) and verified by amino acid analysis (Department of Biochemistry, University of Cambridge). TNKS2 ARC4 (488–649) or TNKS1 ARC2–3 (315–662) was diluted 2-fold serially in the assay buffer (50 mM HEPES pH 7.5, 300 mM NaCl, 2 mM DTT, 0.05% (v/v) Tween 20) for a 12-point titration curve in triplicate. The diluted TAMRA-labeled peptide (20 nM, 50 μL) was mixed with the serially diluted TNKS2 ARC4 or TNKS1 ARC2–3 (40–0 μM, 50 μL) in each well and incubated for 30 min at 25 °C before the measurement. Data were analyzed on GraphPad Prism 5.0, and the dissociation constant, Kd, was determined using the following equation assuming the ratio between the concentration of the bound and that of the total TAMRA-labeled peptide is proportional to the fluorescence polarization [drawing 1] where FP is the fluorescence polarization, B is the minimum FP, T is the maximum FP, L0 is the total concentration of TAMRA-labeled peptide, P0 is the total concentration of protein, and Kd is the dissociation constant.

TNKS1 ARC2-3 = biological target: T2, TNKS1 ARC2-3 (Homo sapiens, UniProt O95271); test: Isothermal titration calorimetry, TNKS1 ARC2-3; format: binding; settings: unlabeled peptides and Axin proteins
T2 construct: His6 (cleaved yes); made in house; host or cells: E. coli C41(DE3)
T2 sequence (O95271 315-662): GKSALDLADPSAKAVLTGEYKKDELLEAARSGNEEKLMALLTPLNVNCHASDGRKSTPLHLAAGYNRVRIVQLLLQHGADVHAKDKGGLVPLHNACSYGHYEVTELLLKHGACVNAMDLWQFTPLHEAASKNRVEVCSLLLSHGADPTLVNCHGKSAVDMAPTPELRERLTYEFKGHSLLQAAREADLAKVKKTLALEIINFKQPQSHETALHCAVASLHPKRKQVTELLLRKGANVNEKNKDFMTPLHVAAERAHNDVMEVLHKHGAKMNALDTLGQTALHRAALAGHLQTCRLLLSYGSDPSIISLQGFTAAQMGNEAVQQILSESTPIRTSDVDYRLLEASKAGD
Description: All ITC experiments were performed on a MicroCal iTC200 (GE Healthcare) at 25 °C. TNKS2 ARC4 (488–649), TNKS1 ARC2–3 (315–662), and Axin1 fragments were dialyzed overnight in PBS and 0.5 mM TCEP. Unlabeled peptides were used in the experiments. The peptide was diluted from the stock solution using the same dialysis buffer, and the effect of buffer dilution was accounted for when preparing TNKS samples. TNKS2 ARC4 (160–280 μM) or TNKS1 ARC2–3 (60–150 μM) was titrated into the sample cell containing the peptide (5–15 μM) or Axin1 fragments (8–12 μM) with an initial injection of 0.2 μL over 0.4 s followed by 19 injections of 2 μL over 4 s with a spacing of 60 s, except for TNKS2 ARC4 and Axin1 fragments for which the spacing was 70 s. Control experiments were performed using the same settings as above except that the cell was filled with dialysis buffer. Data were fitted with nonlinear regression using a one-site binding model from Origin 7.0 (MicroCal, Inc.).[90]

TNKS2 ARC4 (488–649) = biological target: T3, TNKS2 ARC4 (488–649) (human, UniProt Q9H2K2 488-649); test: FP
T3 chain: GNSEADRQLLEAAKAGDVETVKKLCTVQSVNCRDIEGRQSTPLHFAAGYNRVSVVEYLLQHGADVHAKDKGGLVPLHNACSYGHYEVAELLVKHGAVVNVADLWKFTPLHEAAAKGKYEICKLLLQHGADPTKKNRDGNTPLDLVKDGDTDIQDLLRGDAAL

[1] = biological target: T4, human tankyrase 2 ankyrin repeat cluster 4 (TNKS2 ARC4, residues 488-649) (human, UniProt Q9H2K2 488-649); test: fluorescence polarisation; direct: TNKS2 ARC4 or TNKS1 ARC2-3 diluted 2-fold serially (40-0 uM, 50 uL) and mixed with TAMRA-labeled peptide (20 nM, 50 uL); 50 mM HEPES pH 7.5, 300 mM NaCl, 2 mM DTT, 0.05% Tween 20; 30 min, 25 C; settings: both partners purified
T4 sequence (looked up): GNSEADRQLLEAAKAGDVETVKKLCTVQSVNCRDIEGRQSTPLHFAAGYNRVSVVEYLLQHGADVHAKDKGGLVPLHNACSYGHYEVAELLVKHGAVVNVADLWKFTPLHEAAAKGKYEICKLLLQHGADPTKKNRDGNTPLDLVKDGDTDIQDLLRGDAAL

[2] = biological target: T5, human tankyrase 1 ankyrin repeat clusters 2-3 (TNKS1 ARC2-3, residues 315-662) (human, UniProt O95271 315-662); test: as above; settings: both partners purified
T5 sequence (looked up): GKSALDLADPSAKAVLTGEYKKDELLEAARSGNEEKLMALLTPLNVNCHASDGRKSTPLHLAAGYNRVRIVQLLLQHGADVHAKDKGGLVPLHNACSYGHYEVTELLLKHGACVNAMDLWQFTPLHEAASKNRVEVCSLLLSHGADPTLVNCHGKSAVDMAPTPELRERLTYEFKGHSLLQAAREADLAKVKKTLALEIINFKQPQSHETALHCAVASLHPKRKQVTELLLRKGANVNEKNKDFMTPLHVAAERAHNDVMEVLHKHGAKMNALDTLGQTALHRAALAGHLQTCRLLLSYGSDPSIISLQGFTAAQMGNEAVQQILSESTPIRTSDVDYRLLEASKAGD

- Kd (TNKS2 ARC4): 2600 ± 100 nM
Molecule: CN(C)c1ccc2c(c1)Oc1cc(N(C)C)ccc1C21OC(=O)c2cc(C(=O)NCCCCCC(=O)N[C@@H](CCCNC(=N)N)C(=O)N[C@@H](CCC(=O)O)C(=O)N[C@H]3CCCn4cc(nn4)CCCc4cn(nn4)CCC[C@@H](C(=O)N[C@@H](CCC(=O)O)C(N)=O)NC(=O)CNC(=O)[C@H](CC(=O)O)NC(=O)CNC3=O)ccc21 [T-cp4n3m3]

- Kd TNKS2 ARC4 (Direct FP) (TNKS2 ARC4): nondetectable
Molecule: cp4n1m3: non-binding cross-linked peptide, REXGDGXE, UAA side chains n=1, linker m3 (RE[Dap(N3)]GDG[Dap(N3)]E; linker 3-7 via m3 (inferred); reading uncertain)

- Kd (TNKS2 ARC4): 440 ± 10 nM
Molecule: CN(C)c1ccc2c(c1)Oc1cc(N(C)C)ccc1C21OC(=O)c2cc(C(=O)NCCCCCC(=O)N[C@@H](CCCNC(=N)N)C(=O)N[C@@H](CCC(=O)O)C(=O)N[C@H]3CCn4cc(nn4)-c4cc(C(=O)O)cc(c4)-c4cn(nn4)CC[C@@H](C(=O)N[C@@H](CCC(=O)O)C(N)=O)NC(=O)CNC(=O)[C@H](CC(=O)O)NC(=O)CNC3=O)ccc21 [T-cp4n2m3c]

- Kd (TNKS2 ARC4): 730 ± 20 nM
Molecule: CC(C)C[C@H](NC(=O)c1cc2cc(c1)-c1cn(nn1)CC[C@H](NC(=O)[C@H](CCC(=O)O)NC(=O)[C@H](CCCNC(=N)N)NC(=O)CCCCCNC(=O)c1ccc3c(c1)C(=O)OC31c3ccc(N(C)C)cc3Oc3cc(N(C)C)ccc31)C(=O)NCC(=O)N[C@@H](CC(=O)O)C(=O)NCC(=O)N[C@H](C(=O)N[C@@H](CCC(=O)O)C(N)=O)CCn1cc-2nn1)C(=O)N[C@@H](CS)C(=O)N[C@@H](CC(C)C)C(=O)N[C@@H](CCCNC(=N)N)C(N)=O [T-cp4n2m3c-LCLR]

- Kd (TNKS2 ARC4): 800 ± 20 nM
Molecule: CN(C)c1ccc2c(c1)Oc1cc(N(C)C)ccc1C21OC(=O)c2cc(C(=O)NCCCCCC(=O)N[C@@H](CCCNC(=N)N)C(=O)N[C@@H](CCC(=O)O)C(=O)N[C@H]3CCn4cc(nn4)CCCCc4cn(nn4)CC[C@@H](C(=O)N[C@@H](CCC(=O)O)C(N)=O)NC(=O)CNC(=O)[C@H](CC(=O)O)NC(=O)CNC3=O)ccc21 [T-cp4n2m4]

Molecule: CN(C)c1ccc2c(c1)Oc1cc(N(C)C)ccc1C21OC(=O)c2cc(C(=O)NCCCCCC(=O)N[C@@H](CCCNC(=N)N)C(=O)N[C@@H](CCC(=O)O)C(=O)N[C@H]3CCn4cc(nn4)-c4cc(C(=O)N[C@@H](CCCNC(=N)N)C(=O)N[C@@H](CCCNC(=N)N)C(=O)N[C@@H](CCCNC(=N)N)C(=O)N[C@@H](CCCNC(=N)N)C(=O)N[C@@H](CCCNC(=N)N)C(=O)N[C@@H](CCCNC(=N)N)C(=O)N[C@@H](CCCNC(=N)N)C(=O)N[C@@H](CCCNC(=N)N)C(=O)N[C@@H](CCCNC(=N)N)C(N)=O)cc(c4)-c4cn(nn4)CC[C@@H](C(=O)N[C@@H](CCC(=O)O)C(N)=O)NC(=O)CNC(=O)[C@H](CC(=O)O)NC(=O)CNC3=O)ccc21 [T-cp4n2m3c-R9]
- Kd (TNKS2 ARC4): 740 ± 30 nM

- Kd (TNKS2 ARC4): 1100 ± 40 nM
Molecule: CN(C)c1ccc2c(c1)Oc1cc(N(C)C)ccc1C21OC(=O)c2cc(C(=O)NCCCCCC(=O)N[C@@H](CCCNC(=N)N)C(=O)N[C@@H](CCC(=O)O)C(=O)N[C@H]3CCn4cc(nn4)CCCc4cn(nn4)CCC[C@@H](C(=O)N[C@@H](CCC(=O)O)C(N)=O)NC(=O)CNC(=O)[C@H](CC(=O)O)NC(=O)CNC3=O)ccc21 [T-cp4n23m3]

- Kd (TNKS2 ARC4): 1200 ± 20 nM
Molecule: CN(C)c1ccc2c(c1)Oc1cc(N(C)C)ccc1C21OC(=O)c2cc(C(=O)NCCCCCC(=O)N[C@@H](CCCNC(=N)N)C(=O)N[C@@H](CCC(=O)O)C(=O)N[C@H]3CCn4cc(nn4)CN(CC(=O)O)Cc4cn(nn4)CC[C@@H](C(=O)N[C@@H](CCC(=O)O)C(N)=O)NC(=O)CNC(=O)[C@H](CC(=O)O)NC(=O)CNC3=O)ccc21 [T-cp4n2m3N]

- Stoichiometry (ITC), TNKS1 ARC2-3 (TNKS1 ARC2-3): two
B1: hAxin1_1-80: fragment of human Axin1, residues 1–80, containing both TNKS-binding motifs (protein)
chain: MNIQEQGFPLDLGASFTEDAPRPPVPGEEGELVSTDPRPASYSFCSGKGVGIKGETSTATPRRSDLDLGYEPEGSASPTP
modifications: left off: GST, end not stated, cleaved

- Kd (TNKS2 ARC4 (488–649)): 1110 nM
- Kd [1]: 1100 ± 30 nM
Molecule: {5‑TAMRA-Ahx}-RE[Orn(N3)]GDG[Orn(N3)]E (bridge 3-7; not fully specified (bridges)) [T-cp4n3m4]

- Kd [2]: 290 ± 8 nM
- Kd (TNKS2 ARC4 (488–649)): 810 nM
Molecule: {5‑TAMRA-Ahx}-RE[Aha]GDG[Aha]E (triazole 3-7 via m4; reading uncertain) [T-cp4n2m4]

- Kd (TNKS2 ARC4 (488–649)): 1910 nM
- Kd [1]: 1900 ± 50 nM
Molecule: {5‑TAMRA-Ahx}-RE[n3]GDG[n3]E (bridge 3-7; not fully specified (bridges)) [T-cp4n3m5]

- Kd [2]: 320 ± 3 nM
- Kd [1]: 400 ± 10 nM
Molecule: {5‑TAMRA-Ahx}-RE[Aha]GDG[Aha]E-NH2 (triazole 3-7 via m3c; reading uncertain) [T-cp4n2m3c]

- Kd [2]: 280 ± 5 nM
Molecule: {5‑TAMRA-Ahx}-RE[Aha]GDG[Aha]E (triazole 3-7 via m3N; reading uncertain) [T-cp4n2m3N]

- Kd [2]: 180 ± 7 nM
Molecule: {5‑TAMRA-Ahx}-RE[Aha]GDG[Aha]E (triazole 3-7 via m3; reading uncertain) [T-cp4n2m3]

- Kd (TNKS2 ARC4 (488–649)): 1290 nM
- Kd [1]: 1300 ± 40 nM
Molecule: {5‑TAMRA-Ahx}-RE[Aha]GDG[Aha]E (triazole 3-7 via m5; reading uncertain) [T-cp4n2m5]
